{
  "source": "patent US20080176263A1",
  "about": "“Materials and Methods for Efficient and Accurate Detection of Analytes” (University of Florida Research Foundation, Inc., priority 2006, published 2008)",
  "key": {"substrate TNO211 [1]": {"test_system": "substrate TNO211", "experiment": "Study #1: time-to-detection of protease activity, cleavage of substrate TNO211 by fluorescence", "format": "biochemical", "conditions": "protease concentrations ≦100 ng/ml", "protocol": "1. Prepare a suitable standard curve diluted in enzyme buffer. Typically, a maximum of 50 ng/ml final protease concentration in the assay is used. Keep on ice until use.\n2. Prepare the substrate solution by diluting the Stock Reconstituted Substrate (in DMSO) to 5.56 uM in the desired Assay Buffer (EDTA-free or EDTA-containing) to produce 90 ul of total EDTA-free or EDTA-containing Assay Buffer per well.\n3. Pipette 90 ul substrate solution into each well to be assayed.\n4. Take an initial fluorescence reading. To minimize interference due to the fluorescence of endogenous proteins in the samples, we routinely use excitation/emission wavelengths of 355/535 nm, respectively.\n5. Pipette 10 ul standards, samples, or Enzyme Buffer (BLANK) into each well of the 96-well fluorescence assay plate.\n6. Measure the change in fluorescence continuously until the standard range of interest is sufficiently resolved. Protect from light at RT or 37° C. between measurements.\n7. Determine the best-fit curve relating the Change in Fluorescence (AF) vs.\n[Protease]. […]\nOne hundred, 10, 1, and 0.1 ng of pronase, MMP-2, MMP-9, and clostridial collagenase were assayed in a total reaction volume of 100 ul for cleavage of substrate TNO211 as detected by fluorescence. The reactions were monitored for approximately one hour after the addition of the proteases."}, "substrate TNO211 [2]": {"test_system": "substrate TNO211", "experiment": "Study #3: protease detection sensitivity, visual detection under UV", "format": "biochemical", "conditions": "within 10 minutes; from 17% and 28% of pronase activity", "protocol": "To investigate the visual detection limits of pronase, standard curves (1000-0 ng) of the protease were reacted in 50, 100, and 200 uM substrate diluted in the assay buffer. Digital photographs were taken under white light and UV. These observations were compared to those obtained quantitatively using the fluorescence plate reader. The observed detection limits for pronase were used to calculate theoretical detection limits for MMP-2 and MMP-9 (17% and 28% as active as pronase, respectively)."}},
  "note": "“And” between values parts separate entries of the source, which are not always exact repeats. Identical values can stand only once.",
  "data": [
    {"molecule": "MMP-2: protease assayed for cleavage of substrate TNO211 (protein) YNFFPRKPKWDKNQITYRIIGYTPDLDPETVDDAFARAFQVWSDVTPLRFSRIHDGEADIMINFGRWEHGDGYPFDGKDGLLAHAFAPGTGVGGDSHFDDDELWTLGEGQVVRVKYGNADGEYCKFPFLFNGKEYNSCTDTGRSDGFLWCSTTYNFEKDGKYGFCPHEALFTMGGNAEGQPCKFPFRFQGTSYDSCTTEGRTDGYRWCGTTEDYDRDKKYGFCPETAMSTVGGNSEGAPCVFPFTFLGNKYESCTSAGRSDGKMWCATTANYDDDRKWGFCPDQGYSLFLVAAHEFGHAMGLEHSQDPGALMAPIYTYTKNFRLSQDDIKGIQELYGASPDIDLGTGPTPTLGPVTPEICKQDIVFDGIAQIRGEIFFFKDRFIWRTVTPRDKPMGPLLVATFWPELPEKIDAVYEAPQEEKAVFFAGNEYWIYSASTLERGYPKPLTSLGLPPDVQRVDAAFNWSKNKKTYIFAGDKFWRYNEVKKKMDPGFPKLIADAWNAIPDNLDAVVDLQGGGHSYFFKGAYYLKLENQSLKSVKFGSIKSDWLGC", "values": [
      {"measurement": "activity as % of pronase's observed activity", "setting": "substrate TNO211 [1]", "result": "17±4% and 17%"},
      {"measurement": "theoretical detection limit calculated from pronase limit", "setting": "substrate TNO211 [2]", "result": "approximately 735 ng"}
    ]}
  ]
}
